± gives the uncertainty stated by the source.
B1: library; numbered along this chain (parent)
chain: MEVVDPQQLGMFTEGELMSVGMDTFIHRIDSTEVIYQPRRKRAKLIGKYLMGDLLGEGSYGKVKEVLDSETLCRRAVKILKKKKLRRIPNGEANVKKEIQLLRRLRHKNVIQLVDVLYNEEKQKMYMVMEYCVCGMQEMLDSVPEKRFPVCQAHGYFCQLIDGLEYLHSQGIVHKDIKPGNLLLTTGGTLKISDLGVAEALHPFAADDTCRTSQGSPAFQPPEIANGLDTFSGFKVDIWSAGVTLYNITTGLYPFEGDNIYKLFENIGKGSYAIPGDCGPPLSDLLKGMLEYEPAKRFSIRQIRQHSWFRKKHPPAEAPVPIPPSPDTKDRWRSMTVVPYLEDLHGADEDEDLFDIEDDIIYTQDFTVPGQVPEEEASHNGQRRGLPKAVCMNGTEAAQLSTKSRAEGRAPNPARKACSASSKIRRLSACKQQ

Variants of: B1
Assay: STK11 functional score (HeLa growth suppression), rescaled enrichment; synonymous median = 1, nonsense median = 0 (normalised score)
Conditions: with HeLa; variant type: missense
Outline: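 The values are functional scores: wild-type-corrected log ratios of post- versus pre-selection abundance, rescaled to synonymous and nonsense medians, merged over codons and replicate transfections, and carrying bootstrapped error. They derive from codon-randomised (POPCode), codon-optimised STK11 libraries that Bxb1 integrated at an AAVS1 landing pad in HeLa, with three transfections for each of three regions. Sequencing of tiled gDNA amplicons ran on NextSeq, at ~2 million reads per tile.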

| Variant | STK11 functional score |
| --- | --- |
| MEVVDPQQLGMFTEGELMSVGMDTFIHRIDSTEVIYQPRRKRAKLIGKYLMGDLLGEGSYGKVKEVLDSETLCRRAVKILKRKKLRRIPNGEANVKKEIQLLRRLRHKNVIQLVDVLYNEEKQKMYMVMEYCVCGMQEMLDSVPEKRFPVCQAHGYFCQLIDGLEYLHSQGIVHKDIKPGNLLLTTGGTLKISDLGVAEALHPFAADDTCRTSQGSPAFQPPEIANGLDTFSGFKVDIWSAGVTLYNITTGLYPFEGDNIYKLFENIGKGSYAIPGDCGPPLSDLLKGMLEYEPAKRFSIRQIRQHSWFRKKHPPAEAPVPIPPSPDTKDRWRSMTVVPYLEDLHGADEDEDLFDIEDDIIYTQDFTVPGQVPEEEASHNGQRRGLPKAVCMNGTEAAQLSTKSRAEGRAPNPARKACSASSKIRRLSACKQQ [K82R] | 1.66 ± 0.4 |
| MEVVDPQQLGMFTEGELMSVGMDTFIHRIDSTEVIYQPRRKRAKLIGKYLMGDLLGEGSYGKVKEVLDSETLCRRAVKILKKKKLRRIPNGEANVKKEIQLLRRLRHKNVIQLVDVLYNEEKQKMYMGMEYCVCGMQEMLDSVPEKRFPVCQAHGYFCQLIDGLEYLHSQGIVHKDIKPGNLLLTTGGTLKISDLGVAEALHPFAADDTCRTSQGSPAFQPPEIANGLDTFSGFKVDIWSAGVTLYNITTGLYPFEGDNIYKLFENIGKGSYAIPGDCGPPLSDLLKGMLEYEPAKRFSIRQIRQHSWFRKKHPPAEAPVPIPPSPDTKDRWRSMTVVPYLEDLHGADEDEDLFDIEDDIIYTQDFTVPGQVPEEEASHNGQRRGLPKAVCMNGTEAAQLSTKSRAEGRAPNPARKACSASSKIRRLSACKQQ [V128G] | 0.233 ± 0.1 |
| MEVVDPQQLGMFTEGELMSVGMDTFIHRIDSTEVIYQPRRKRAKLIGKYLMGDLLGEGSYGKVKEVLDSETLCRRAVKILKKKKLRRIPNGEANVKKEIQLLRRLRHKNVIQLVDVLYNEEKQKMYMVMEYCVCGMQEMLDSVPEKRFPVCQAHGYFCQLIDGLEYLHSQGIVHKDIKPGNLLLTTGGTLKISDLGVAEALHPFAADDTCRTSQGSPAFQPPEIANGLDTFSGFKVDIWSAGVTLYNITTGLYPFEGDNIYKLFENIGKGSYAIPGDCGPPLSDLLKGMLEYEPAKRFSIRQIRQHSWFRKKHPPAEAPVPIPPSPDTKDRWRSMTVVPYLEDLHGADEDEDLFDIEDDIIYPQDFTVPGQVPEEEASHNGQRRGLPKAVCMNGTEAAQLSTKSRAEGRAPNPARKACSASSKIRRLSACKQQ [T363P] | 1.34 ± 0.17 |
| MEVVDPQQLGMFTEGELMSVGMDTFIHRIDSTEVIYQPRRKRAKLIGKYLMGDLLGEGSYGKVKEVLDSETLCRRAVKILKKKKLRRIPNGEANVKKEIQLLRRLRHKNVIQLVDVLYNEEKQKMYMVMEYCVCGMQEMLDSVPEKRFPVCQAHGYFCQLIDGLEYLHSQGIVHKDIKPGNLLLTTGGTLKISDLGVAEALHPFAADDTCRTSQGSPAFQPPEIANGLDTFSGFKVDIWSAGVTLYNITTGLYPFEGDNIYKLFENIGKGSYAIPGDCGPPLSDLLKGMLEYEPAKRFSIRQIRQHSWFRKKHPPAEAPVPIPPSPDTKDRWRSMTVVPYLEDLHGADEDEDLFDIEDDIIYTQDFTVPGQVPEEEASHNGQRRGLPKAVCMNGTEAAQLSTKSRAEGRAPNPARKACSASSKIFRLSACKQQ [R425F] | 1.11 ± 0.54 |
| MEVVDPQQLGMFTEGELMSVGMDTFIHRIDSTEVIYQPRRKRAKLIGKYLMGDLLGEGSYGKVKEVLDSETLCRRAVKILKKKKLRRIPNGEANVKKEIQLLRRLRHKNVIQLVDVLYNEEKQKMYMVMEYCVCGMQEMLDSVPEKRFPVCQAHGYFCQLIDGLEYLHSQGIVHKDIKPGNLLLTTGGTLKISDLGVAEALHPFAADDTCRTSQGSPAFQPPEIANGLDTFSGFKVDIWSAGVTLYNITTGLYPFEGDNIYKLFENIGKGSYAIPGDCGPPLSDLLKGMLEYEPAKRFSIRQIRQHSWFRKKHPPAEAPVPIPPSPDTKDRWRSMTVVPYLEDLHGADEDEDLFDIEDDIIYTQDFTVPGQVPEEEASANGQRRGLPKAVCMNGTEAAQLSTKSRAEGRAPNPARKACSASSKIRRLSACKQQ [H379A] | 1.38 ± 0.37 |
| MEVVDPQQLGMFTEGELMSVGMDTFIHRIDSTEVIYQPRRKRAKLIGKYLMGDLLGEGSYGKVKEVLDSETLCRRAVKILKKKKLRRIPNGEANVKKEIQLLRRLRHKNVIQLVDVLYNEEKQKMYMVMEYCVCGMQEMLDSVPEKRFPVCQAHGYFCQLIDGLEYLHSQGIVHKDIKPGNLLLTTGGTLKISDLGVAEALHPFAADDTCRTSQGSPAFQPPEIANGLDTFSGFKVDIWSAGVTLYNITTGLYPFEGDNIYKLFENIGKGSYAIPGDCGPPLSDLLKGMLEYEPAKRFSIRQIRQHSWFRKKHPCAEAPVPIPPSPDTKDRWRSMTVVPYLEDLHGADEDEDLFDIEDDIIYTQDFTVPGQVPEEEASHNGQRRGLPKAVCMNGTEAAQLSTKSRAEGRAPNPARKACSASSKIRRLSACKQQ [P315C] | 1.17 ± 0.42 |
| MEVVDPQQLGMFTEGELMSVGMDTFIHRIDSTEVIYVPRRKRAKLIGKYLMGDLLGEGSYGKVKEVLDSETLCRRAVKILKKKKLRRIPNGEANVKKEIQLLRRLRHKNVIQLVDVLYNEEKQKMYMVMEYCVCGMQEMLDSVPEKRFPVCQAHGYFCQLIDGLEYLHSQGIVHKDIKPGNLLLTTGGTLKISDLGVAEALHPFAADDTCRTSQGSPAFQPPEIANGLDTFSGFKVDIWSAGVTLYNITTGLYPFEGDNIYKLFENIGKGSYAIPGDCGPPLSDLLKGMLEYEPAKRFSIRQIRQHSWFRKKHPPAEAPVPIPPSPDTKDRWRSMTVVPYLEDLHGADEDEDLFDIEDDIIYTQDFTVPGQVPEEEASHNGQRRGLPKAVCMNGTEAAQLSTKSRAEGRAPNPARKACSASSKIRRLSACKQQ [Q37V] | 1.38 ± 0.15 |

Reference: the supplement of paper PMC12338614
